# Source: US20210317213A1 (AMBRX, published 2021)
# Assays:
# Folate receptor beta = Folate receptor beta (human, UniProt P14207 17-230); test: cell-based or functional assay
# human CD3 [1] = target: T1, human CD3 (human, UniProt P07766 23-207); test: cell binding, human PBMC, 20 nM SFA present
# T1 construct: whole, on cells; also called CD3 on human T-cells
# human CD3 [2] = target: T1, human CD3; test: flow cytometry (MFI) on activated human PBMC, Fab in HEK293 culture medium, concentration not shown
# Procedure: Testing for CD3 binding with activated human and cyno PBMC: To distinguish between the humanized anti-CD3 antibodies generated, binding to human CD3 was tested using activated human PBMCs (n=2). The activation of PBMCs and subsequent fluorescence-based CD3 binding assays were followed as described previously (see for example, Angew Chem Int Ed Engl, 52(46):12101-12104, 2013). […] The binding of the remaining 6 humanized antibodies to both human and cyno CD3 using activated human and cyno PBMCs, respectively, was titrated. […] The six (6) humanized anti-CD3 antibodies were obtained as follows: Fab1, Fab2 and Fab3 wildtype were generated by combination of LC ((vL1.2+CL); (SEQ.ID. NO:7)) and HC ((vH1.2+CH1); (SEQ.ID. NO:1)), ((vH1.1+CH1); (SEQ.ID. NO:2)) and ((vH1.0+CH1); (SEQ.ID. NO:3)) respectively. Fab4, Fab 5 and Fab6 wildtype were generated by combination of LC ((vL1.1+CL); (SEQ.ID. NO:8)) and HC ((vH1.2+CH1); (SEQ.ID. NO:1)), ((vH1.1+CH1); (SEQ.ID. NO:2)) and ((vH1.0+CH1); (SEQ.ID. NO:3)) respectively.
# cyno CD3 [3] = target: T2, cyno CD3 (cyno (cynomolgus monkey), UniProt Q95LI5 22-198); test: flow cytometry (MFI) titration on cyno CD3 (activated cyno PBMC), HEK293 culture supernatant
# T2 construct: whole, on cells; also called CD3 on Cynomolgus T-cells
# Procedure: (§1) Screening for human and cyno CD3 binding: HEK293 culture supernatants were directly used to test for binding to human CD3 in the screening phase. In Round 1 experiment, initially 35 clones were tested for binding to human CD3 at three different protein concentrations, and 13 were selected for detailed binding assays to both human and cyno CD3. An 11-point binding titration curve was generated to both human (FIG. 4A) and cyno CD3 (FIG. 4B) for each clone. […] Similarly, 43 clones were screened in Round 2 experiment. After two-stage screening as described above for Round 1, 11 low-affinity variants were obtained, of which 4 are represented as shown in FIGS. 5A-5B
# human CD3 [4] = target: T1, human CD3; test: flow cytometry (MFI) titration on human CD3 (activated human PBMC), HEK293 culture supernatant
# Procedure: as §1
# cyno CD3 [5] = target: T2, cyno CD3; test: cell binding, activated cyno PBMC; E. coli protein
# human CD3 [6] = target: T1, human CD3; test: cell binding, activated human PBMC; E. coli protein
# cyno CD3 [7] = target: T2, cyno CD3; test: flow cytometry (MFI), 11-point titration on cyno CD3 (activated cyno PBMC), HEK293 culture supernatant
# Procedure: as §1
# human CD3 [8] = target: T1, human CD3; test: flow cytometry (MFI), 11-point titration on human CD3 (activated human PBMC), HEK293 culture supernatant
# Procedure: as §1
# human CD3 [9] = target: T1, human CD3; test: cell binding, activated human PBMC
# T2 sequence (Q95LI5 22-198): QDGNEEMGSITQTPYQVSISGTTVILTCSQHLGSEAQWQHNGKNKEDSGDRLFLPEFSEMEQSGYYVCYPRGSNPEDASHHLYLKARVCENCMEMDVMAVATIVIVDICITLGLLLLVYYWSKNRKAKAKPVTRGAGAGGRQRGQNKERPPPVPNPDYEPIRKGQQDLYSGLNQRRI
# T1 sequence (P07766 23-207): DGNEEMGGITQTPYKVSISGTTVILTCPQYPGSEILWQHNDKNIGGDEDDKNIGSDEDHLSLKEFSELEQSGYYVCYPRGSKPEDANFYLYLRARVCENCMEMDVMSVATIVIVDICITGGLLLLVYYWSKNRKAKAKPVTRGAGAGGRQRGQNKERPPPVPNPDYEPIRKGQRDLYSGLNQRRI
# Folate receptor beta, sequence (P14207 17-230): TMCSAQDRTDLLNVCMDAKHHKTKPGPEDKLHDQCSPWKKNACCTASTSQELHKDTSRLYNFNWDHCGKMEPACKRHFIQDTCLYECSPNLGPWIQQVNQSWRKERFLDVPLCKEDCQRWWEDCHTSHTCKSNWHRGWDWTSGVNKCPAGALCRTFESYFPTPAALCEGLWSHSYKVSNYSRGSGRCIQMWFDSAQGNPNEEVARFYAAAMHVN
binder,measurement,setting,value
"Fab1-HK129-LL157-Folate (Fab, V domains shown, pAF at LL157 (Kabat); folate conjugated, and the label does not say at one site or both; pAF at HK129 (Kabat); folate conjugated, and the label does not say at one site or both) VH: EVQLVESGGGLVQPGGSLRLSCAASGFTFNTYAMNWVRQAPGKGLEWVARIRSKYNNYATYYADSVKDRFTISRDDSKNILYLQMNSLKTEDTAVYYCVRHGNFGNSYVSWFAYWGQGTLVTVSS VL: QAVVTQEPSLTVSPGGTVTLTCRSSTGAVTTSNYANWVQQKPGQAPRGLIGGTNKRAPGTPARFSGSLLGGKAALTLSGAQPEDEAEYYCALWYSNLWVFGGGTKLTVLG","IC50, killing of human M2 macrophages with human T-cells, 50 nM folic acid",Folate receptor beta,0.0012 nM
"Fab1-HK129-LL157-5KPEG-Folate (Fab, V domains shown, pAF at LL157 (Kabat); 5K PEG-folate conjugated, and the label does not say at one site or both; pAF at HK129 (Kabat); 5K PEG-folate conjugated, and the label does not say at one site or both) VH: EVQLVESGGGLVQPGGSLRLSCAASGFTFNTYAMNWVRQAPGKGLEWVARIRSKYNNYATYYADSVKDRFTISRDDSKNILYLQMNSLKTEDTAVYYCVRHGNFGNSYVSWFAYWGQGTLVTVSS VL: QAVVTQEPSLTVSPGGTVTLTCRSSTGAVTTSNYANWVQQKPGQAPRGLIGGTNKRAPGTPARFSGSLLGGKAALTLSGAQPEDEAEYYCALWYSNLWVFGGGTKLTVLG","IC50, killing of human M2 macrophages with human T-cells, 50 nM folic acid",Folate receptor beta,0.112 nM
"Fab10-HK129-LL157-BiFolate-Bi5KPEG (Fab, V domains shown, pAF at LL157 (Kabat) conjugated to a bifunctional linker carrying folate and 5K PEG (oxime); pAF at HK129 (Kabat) conjugated to a bifunctional linker carrying folate and 5K PEG (oxime)) VH: EVQLVESGGGLVQPGGSLRLSCAASGFTFSTYAMNWVRQAPGKGLEWVARIRSKYNNYATYYADSVKDRFTISRDDSKNILYLQMNSLKTEDTAVYYCVRHGNFGNSYVSWFAYWGQGTLVTVSS VL: QAVVTQEPSLTVSPGGTVTLTCRSSTGAVTTSNYANWFQQKPGQAPRGLIGGTNKRAPGVPARFSGSLLGGKAALTLSGAQPEDEAEYYCALWYSNLWVFGGGTKLTVLG",EC50,human CD3 [1],6310 nM
"Fab9-HK129-LL157-BiFolate-Bi5KPEG (Fab, V domains shown, pAF at LL157 (Kabat) conjugated to a bifunctional linker carrying folate and 5K PEG (oxime); pAF at HK129 (Kabat) conjugated to a bifunctional linker carrying folate and 5K PEG (oxime)) VH: EVQLVESGGGLVQPGGSLRLSCAASGFTFNTYAMNWVRQAPGKGLEWVGRIRSKYNNYATYYADSVKDRFTISRDDSKNSLYLQMNSLKTEDTAVYYCVRHGNFGNSYVSWFAYWGQGTLVTVSS VL: QAVVTQEPSLTVSPGGTVTLTCRSSTGAVTTSNYANWFQQKPGQAPRGLIGGTNKRAPGVPARFSGSLLGGKAALTLSGAQPEDEAEYYCALWYSNLWVFGGGTKLTVLG",EC50,human CD3 [1],340 nM
"humanized anti-CD3 Fab vH1.0 + vL1.0 (Fab, V domains shown, it has no Fab number; HEK293 supernatant; also called antibody with vL1.0 light chain and vH1.0) VH: EVQLVESGGGLVQPGGSLRLSCAASGFTFNTYAMNWVRQAPGKGLEWVGRIRSKYNNYATYYADSVKDRFTISRDDSKNSLYLQMNSLKTEDTAVYYCVRHGNFGNSYVSWFAYWGQGTLVTVSS VL: QAVVTQEPSLTVSPGGTVTLTCRSSTGAVTTSNYANWFQQKPGQAPRTLIYGTNKRAPWTPARFSGSLLGGKAALTLSGAQPEDEAEYYCALWYSNLWVFGGGTKLTVLG",binding result,human CD3 [2],no binding
"humanized anti-CD3 Fab vH1.2 + vL1.0 (Fab, V domains shown, it has no Fab number; HEK293 supernatant; also called antibody with vL1.0 light chain and vH1.2) VH: EVQLVESGGGLVQPGGSLRLSCAASGFTFNTYAMNWVRQAPGKGLEWVARIRSKYNNYATYYADSVKDRFTISRDDSKNILYLQMNSLKTEDTAVYYCVRHGNFGNSYVSWFAYWGQGTLVTVSS VL: QAVVTQEPSLTVSPGGTVTLTCRSSTGAVTTSNYANWFQQKPGQAPRTLIYGTNKRAPWTPARFSGSLLGGKAALTLSGAQPEDEAEYYCALWYSNLWVFGGGTKLTVLG",binding result,human CD3 [2],no binding
"humanized anti-CD3 Fab vH1.1 + vL1.0 (Fab, V domains shown, it has no Fab number; HEK293 supernatant; also called antibody with vL1.0 light chain and vH1.1) VH: EVQLVESGGGLVQPGGSLRLSCAASGFTFNTYAMNWVRQAPGKGLEWVARIRSKYNNYATYYADSVKDRFTISRDDSKNSLYLQMNSLKTEDTAVYYCVRHGNFGNSYVSWFAYWGQGTLVTVSS VL: QAVVTQEPSLTVSPGGTVTLTCRSSTGAVTTSNYANWFQQKPGQAPRTLIYGTNKRAPWTPARFSGSLLGGKAALTLSGAQPEDEAEYYCALWYSNLWVFGGGTKLTVLG",binding result,human CD3 [2],no binding
"Fab14 (Fab, V domains shown, distinct from m37 (Fab14-HK129-Folate); also called Fab14 (vH2.5 / vL2.1), wild type from HEK293) VH: EVQLVESGGGLVQPGGSLRLSCAASGFTFNTYAMNWVRQAPGKGLEWVGRIRSKYNNYATYYADSVKDRFTISRDDSKNSLYLQMNSLKTEDTAVYYCARHGNFGNSYVSWFAYWGQGTLVTVSS VL: QAVVTQEPSLTVSPGGTVTLTCRSSTGAVTTSNYANWFQQKPGQAPRGLIGGTNKRAPGVPARFSGSLLGGKAALTLSGAQPEDEAEYYCALWYSNLWVFGGGTKLTVLG",EC50 (read off the curve),cyno CD3 [3],~10 nM
same,EC50 (read off the curve),human CD3 [4],~5 nM
"Fab1 wildtype (vH1.2+CH1 / vL1.2+CL), humanized anti-CD3 SP34 (Fab, V domains shown, also called Fab1-WT; vH1.2+vL1.2) VH: EVQLVESGGGLVQPGGSLRLSCAASGFTFNTYAMNWVRQAPGKGLEWVARIRSKYNNYATYYADSVKDRFTISRDDSKNILYLQMNSLKTEDTAVYYCVRHGNFGNSYVSWFAYWGQGTLVTVSS VL: QAVVTQEPSLTVSPGGTVTLTCRSSTGAVTTSNYANWVQQKPGQAPRGLIGGTNKRAPGTPARFSGSLLGGKAALTLSGAQPEDEAEYYCALWYSNLWVFGGGTKLTVLG",EC50,cyno CD3 [5],0.75 nM
same,EC50,human CD3 [6],0.93 nM
same,EC50 (read off the curve),cyno CD3 [3],~2 nM
same,EC50 (read off the curve),human CD3 [4],~0.8 nM
same,EC50 (read off the curve),cyno CD3 [7],~0.6 nM
same,EC50 (read off the curve),human CD3 [8],~0.7 nM
"Fab11-HK129-Folate (Fab, V domains shown, pAF at HK129 (Kabat) conjugated to folate (oxime)) VH: EVQLVESGGGLVQPGGSLRLSCAASGFTFSTYAMNWVRQAPGKGLEWVGRIRSKYNNYATYYADSVKDRFTISRDDSKNSLYLQMNSLKTEDTAVYYCVRHGNFGNSYVSWFAYWGQGTLVTVSS VL: QAVVTQEPSLTVSPGGTVTLTCRSSTGAVTTSNYANWFQQKPGQAPRTLIYGTNKRAPWTPARFSGSLLGGKAALTLSGAQPEDEAEYYCALWYSNLWVFGGGTKLTVLG",binding result,human CD3 [9],no binding (tested: 1000 nM)
"Fab19-HK129-Folate (Fab, V domains shown, pAF at HK129 (Kabat) conjugated to folate (oxime)) VH: EVQLVESGGGLVQPGGSLRLSCAASGFTFNTYAMHWVRQAPGKGLEWVARIRSKYNNYATYYADSVKDRFTISRDDSKNILYLQMNSLKTEDTAVYYCVRHGNFGNSYVSWFAYWGQGTLVTVSS VL: QAVVTQEPSLTVSPGGTVTLTCRSSTGAVTTSNYANWVQQKPGQAPRGLIGGTNKRAPGTPARFSGSLLGGKAALTLSGAQPEDEAEYYCALWYSNLWVFGGGTKLTVLG",binding result,human CD3 [9],no binding (tested: 1000 nM)
"Fab20-HK129-Folate (Fab, V domains shown, pAF at HK129 (Kabat) conjugated to folate (oxime)) VH: EVQLVESGGGLVQPGGSLRLSCAASGFTFNTYAMHWVRQAPGKGLEWVARIRSKYNNYATYYADSVKDRFTISRDDSKNILYLQMNSLKTEDTAVYYCVRHGNFGNSYVSWFAYWGQGTLVTVSS VL: QAVVTQEPSLTVSPGGTVTLTCRSSTGAVTTSNYANWVQQKPGQAPRGLIGGTNNRAPGTPARFSGSLLGGKAALTLSGAQPEDEAEYYCALWYSNLWVFGGGTKLTVLG",binding result,human CD3 [9],no binding (tested: 1000 nM)
